Source: patent publication US20150203577A1 (Chugai, published 2015)

T1: mouse FcγRIII extracellular domain, C-terminal His tag (mouse, UniProt P08508 31-215)
T1 construct: Whole entry named; also called mFcγRIII; mFcgRIII
T1 chain: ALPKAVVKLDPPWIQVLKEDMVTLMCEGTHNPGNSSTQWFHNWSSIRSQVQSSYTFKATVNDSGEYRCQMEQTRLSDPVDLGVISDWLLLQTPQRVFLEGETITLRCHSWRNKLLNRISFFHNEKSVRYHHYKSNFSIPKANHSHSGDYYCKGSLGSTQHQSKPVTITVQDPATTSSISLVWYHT

T2: mouse FcγRII extracellular domain, C-terminal His tag (mouse, UniProt P08101 30-210)
T2 construct: Whole entry named; also called mFcγRII; mFcgRII
T2 sequence: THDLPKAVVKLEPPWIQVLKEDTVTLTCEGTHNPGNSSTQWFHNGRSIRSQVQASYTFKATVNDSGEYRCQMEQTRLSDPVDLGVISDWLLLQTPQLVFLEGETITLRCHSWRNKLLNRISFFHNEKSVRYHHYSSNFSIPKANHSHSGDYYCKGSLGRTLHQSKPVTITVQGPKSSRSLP

T3: mouse FcγRIII (mouse, UniProt P08508 31-215)
T3 construct: Extracellular domain with C-terminal His tag, made in FreeStyle 293 cells; also called mFcγRIII; mFcgRIII
T3 chain: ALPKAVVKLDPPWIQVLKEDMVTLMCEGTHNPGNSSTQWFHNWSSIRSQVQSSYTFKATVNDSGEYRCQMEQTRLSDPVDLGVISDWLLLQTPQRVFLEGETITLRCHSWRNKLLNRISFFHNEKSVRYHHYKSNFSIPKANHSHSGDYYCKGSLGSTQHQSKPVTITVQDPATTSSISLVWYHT

T4: mouse FcγRII (mouse, UniProt P08101 30-210)
T4 construct: Extracellular domain with C-terminal His tag, made in FreeStyle 293 cells; also called mFcγRII; mFcgRII
T4 sequence: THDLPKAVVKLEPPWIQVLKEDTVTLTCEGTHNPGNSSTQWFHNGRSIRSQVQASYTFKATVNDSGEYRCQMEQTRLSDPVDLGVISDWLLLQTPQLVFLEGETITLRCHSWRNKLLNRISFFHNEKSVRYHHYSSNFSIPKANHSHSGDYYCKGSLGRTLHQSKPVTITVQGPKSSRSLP


Tests used:
[1] = biological target: T1, mouse FcγRIII extracellular domain, …; assay: SPR (Biacore T200); KD of H237-mIgG1/MRAL-k0 / KD of variant
Text: (§1) The antibody H chain variable region used was the variable region H237 (SEQ ID NO: 1) of the H chain VH3-IgG1 of the anti-IL-6 receptor antibody Fv4-IgG1 described in WO2009/125825. The antibody L chain commonly used was the L chain MRAL-k0 (SEQ ID NO: 2) of the anti-IL-6 receptor antibody tocilizumab. The aforementioned 7 variants were used as templates to substitute the amino acids at the alteration sites by the amino acids before the alteration. These variants were expressed and purified by the method of Reference Example 1 and evaluated for their binding to mFcγRII and mFcγRIII by the method of Reference Example 2 using Biacore T200.
(§2) Each altered antibody was analyzed for its interaction with each Fcγ receptor prepared above using Biacore T100 (GE Healthcare Japan Corp.), Biacore T200 (GE Healthcare Japan Corp.), Biacore A100, or Biacore 4000. The running buffer used was HBS-EP+ (GE Healthcare Japan Corp.). The assay temperature was set to 25° C. The sensor chips used were chips prepared by immobilizing Protein L (ACTIGEN or BioVision) onto Series S Sensor Chip CM5 (GE Healthcare Japan Corp.) or Series S Sensor Chip CM4 (GE Healthcare Japan Corp.) by the amine coupling method.

[2] = biological target: T2, mouse FcγRII extracellular domain, …; assay: as above
Text: as §1, §2

mouse FcγRIII [3] = biological target: T3, mouse FcγRIII; assay: SPR (Biacore), KD of H237-mIgG1/MRAL-k0 (same run) / KD of variant
Experimental: as §2
(§3) In order to calculate the KD value of each altered antibody for FcγR, kinetic analysis was conducted according to the following method: first, the antibody of interest was captured onto any of these chips and allowed to interact with mFcγR diluted with a running buffer. For the obtained sensorgram, the assay results were globally fit into the 1:1 Langmuir binding model using Biacore Evaluation Software to calculate an association rate constant ka (L/mol/s) and a dissociation rate constant kd (1/s). From these values, the dissociation constant KD (mol/L) was calculated.

mouse FcγRII [4] = biological target: T4, mouse FcγRII; assay: as above
Experimental: as §2, §3

mouse FcγRIII [5] = biological target: T3, mouse FcγRIII; assay: SPR (Biacore), antibody captured on Protein L
mouse FcγRII [6] = biological target: T4, mouse FcγRII; assay: SPR (Biacore), antibody captured on Protein L

| Binder | relative mFcγRIII-binding activity (mIgG1 = 1) [1] | relative mFcγRII-binding activity (mIgG1 = 1) [2] | relative mFcγRIII-binding activity (mIgG1 = 1) (mouse FcγRIII [3]) | relative mFcγRII-binding activity (mIgG1 = 1) (mouse FcγRII [4]) | Kd (mouse FcγRIII [5]) | Kd (mouse FcγRII [6]) |
| --- | --- | --- | --- | --- | --- | --- |
| H237-MB628/MRAL-k0 (antibody, copies: 2 + 2) heavy: QVQLQESGPGLVKPSETLSLTCAVSGHSISHDHAWSWVRQPPGEGLEWIGFISYSGITNYNPSLQGRVTISRDNSKNTLYLQMNSLRAEDTAVYYCARSLARTTAMDYWGEGTLVTVSSAKTTPPSVYPLAPGSAAQTNSMVTLGCLVKGYFPEPVTVTWNSGSLSSGVHTFPAVLQSDLYTLSSSVTVPSSTWPSETVTCNVAHPASSTKVDKKIVPRDCGCKPCICEPAEVELVFIFPPKPKDVLTITLTPKVTCVVVDISKDDPEVQFSWFVDDVEVHTAQTQPREEQFNSTFRSVSELPIMHQDWLNGKEFKCRVNSAAFPAPIEKTISKTKGRPKAPQVYTIPPPKEQMAKDKVSLTCMITDFFPEDITVEWQWNGQPAENYKNTQPIMDTDGSYFVYSKLNVQKSNWEAGNTFTCSVLHEGLHNHHTEKSLSHSPGK light: not shown | 0.083 fold | 2.09 fold | – | – | – | – |
| H237-MB632/MRAL-k0 (antibody, mouse IgG1, kappa, copies: 2 + 2) heavy: QVQLQESGPGLVKPSETLSLTCAVSGHSISHDHAWSWVRQPPGEGLEWIGFISYSGITNYNPSLQGRVTISRDNSKNTLYLQMNSLRAEDTAVYYCARSLARTTAMDYWGEGTLVTVSSAKTTPPSVYPLAPGSAAQTNSMVTLGCLVKGYFPEPVTVTWNSGSLSSGVHTFPAVLQSDLYTLSSSVTVPSSTWPSETVTCNVAHPASSTKVDKKIVPRDCGCKPCICEAYEVENVFIFPPKPKDVLTITLTPKVTCVVVDISKDDPEVQFSWFVDDVEVHTAQTQPREEQFNSTFRSVSELPIMHQDWLNGKEFKCRVNSAAFPAPIEKTISKTKGRPKAPQVYTIPPPKEQMAKDKVSLTCMITDFFPEDITVEWQWNGQPAENYKNTQPIMDTDGSYFVYSKLNVQKSNWEAGNTFTCSVLHEGLHNHHTEKSLSHSPGK light: not shown | 0.236 fold | 3.72 fold | – | – | – | – |
| H237-MB636/MRAL-k0 (antibody, mouse IgG1, kappa, copies: 2 + 2) heavy: QVQLQESGPGLVKPSETLSLTCAVSGHSISHDHAWSWVRQPPGEGLEWIGFISYSGITNYNPSLQGRVTISRDNSKNTLYLQMNSLRAEDTAVYYCARSLARTTAMDYWGEGTLVTVSSAKTTPPSVYPLAPGSAAQTNSMVTLGCLVKGYFPEPVTVTWNSGSLSSGVHTFPAVLQSDLYTLSSSVTVPSSTWPSETVTCNVAHPASSTKVDKKIVPRDCGCKPCICEVYEVENVFIFPPKPKDVLTITLTPKVTCVVVDISKDDPEVQFSWFVDDVEVHTAQTQPREEQFNSTFRSVSELPIMHQDWLNGKEFKCRVNSAAFPAPIEKTISKTKGRPKAPQVYTIPPPKEQMAKDKVSLTCMITDFFPEDITVEWQWNGQPAENYKNTQPIMDTDGSYFVYSKLNVQKSNWEAGNTFTCSVLHEGLHNHHTEKSLSHSPGK light: not shown | 0.172 fold | 3.92 fold | – | – | – | – |
| H237-MB642/MRAL-k0 (antibody, mouse IgG1, kappa, copies: 2 + 2) heavy: QVQLQESGPGLVKPSETLSLTCAVSGHSISHDHAWSWVRQPPGEGLEWIGFISYSGITNYNPSLQGRVTISRDNSKNTLYLQMNSLRAEDTAVYYCARSLARTTAMDYWGEGTLVTVSSAKTTPPSVYPLAPGSAAQTNSMVTLGCLVKGYFPEPVTVTWNSGSLSSGVHTFPAVLQSDLYTLSSSVTVPSSTWPSETVTCNVAHPASSTKVDKKIVPRDCGCKPCICEDYEVEYVFIFPPKPKDVLTITLTPKVTCVVVDISKDDPEVQFSWFVDDVEVHTAQTQPREEQFNSTFRSVSELPIMHQDWLNGKEFKCRVNSAAFPAPIEKTISKTKGRPKAPQVYTIPPPKEQMAKDKVSLTCMITDFFPEDITVEWQWNGQPAENYKNTQPIMDTDGSYFVYSKLNVQKSNWEAGNTFTCSVLHEGLHNHHTEKSLSHSPGK light: not shown | 0.1 fold | 1.65 fold | – | – | – | – |
| H237-MB645/MRAL-k0 (antibody, mouse IgG1, kappa, copies: 2 + 2) heavy: QVQLQESGPGLVKPSETLSLTCAVSGHSISHDHAWSWVRQPPGEGLEWIGFISYSGITNYNPSLQGRVTISRDNSKNTLYLQMNSLRAEDTAVYYCARSLARTTAMDYWGEGTLVTVSSAKTTPPSVYPLAPGSAAQTNSMVTLGCLVKGYFPEPVTVTWNSGSLSSGVHTFPAVLQSDLYTLSSSVTVPSSTWPSETVTCNVAHPASSTKVDKKIVPRDCGCKPCICEVYEVEYVFIFPPKPKDVLTITLTPKVTCVVVDISKDDPEVQFSWFVDDVEVHTAQTQPREEQFNSTFRSVSELPIMHQDWLNGKEFKCRVNSAAFPAPIEKTISKTKGRPKAPQVYTIPPPKEQMAKDKVSLTCMITDFFPEDITVEWQWNGQPAENYKNTQPIMDTDGSYFVYSKLNVQKSNWEAGNTFTCSVLHEGLHNHHTEKSLSHSPGK light: not shown | 0.217 fold | 1.06 fold | – | – | – | – |
| H237-MB732/MRAL-k0 (antibody, mouse IgG1, kappa, copies: 2 + 2) heavy: QVQLQESGPGLVKPSETLSLTCAVSGHSISHDHAWSWVRQPPGEGLEWIGFISYSGITNYNPSLQGRVTISRDNSKNTLYLQMNSLRAEDTAVYYCARSLARTTAMDYWGEGTLVTVSSAKTTPPSVYPLAPGSAAQTNSMVTLGCLVKGYFPEPVTVTWNSGSLSSGVHTFPAVLQSDLYTLSSSVTVPSSTWPSETVTCNVAHPASSTKVDKKIVPRDCGCKPCICEPNEEELVFIFPPKPKDVLTITLTPKVTCVVVDISKDDPEVQFSWFVDDVEVHTAQTQPREEQFNSTFRSVSELPIMHQDWLNGKEFKCRVNSAAFPAPIEKTISKTKGRPKAPQVYTIPPPKEQMAKDKVSLTCMITDFFPEDITVEWQWNGQPAENYKNTQPIMDTDGSYFVYSKLNVQKSNWEAGNTFTCSVLHEGLHNHHTEKSLSHSPGK light: not shown | – | – | 0.03 fold | 0.84 fold | 13700 nM | 321 nM |
| H237-MB793/MRAL-k0 (antibody, 'S2391' in r30c2 read as S239I; copies: 2 + 2) heavy: QVQLQESGPGLVKPSETLSLTCAVSGHSISHDHAWSWVRQPPGEGLEWIGFISYSGITNYNPSLQGRVTISRDNSKNTLYLQMNSLRAEDTAVYYCARSLARTTAMDYWGEGTLVTVSSAKTTPPSVYPLAPGSAAQTNSMVTLGCLVKGYFPEPVTVTWNSGSLSSGVHTFPAVLQSDLYTLSSSVTVPSSTWPSETVTCNVAHPASSTKVDKKIVPRDCGCKPCICQPNEVEIVFIFPPKPKDVLTITLTPKVTCVVVDISKDDPEVQFSWFVDDVEVHTAQTQPREEQFNSTFRSVSELPIMHQDWLNGKEFKCRVNSAAFPAPIEKTISKTKGRPKAPQVYTIPPPKEQMAKDKVSLTCMITDFFPEDITVEWQWNGQPAENYKNTQPIMDTDGSYFVYSKLNVQKSNWEAGNTFTCSVLHEGLHNHHTEKSLSHSPGK light: not shown | – | – | 0.07 fold | 1.37 fold | 5500 nM | 179 nM |
| H237-MB886/MRAL-k0 (antibody, mouse IgG1, kappa, copies: 2 + 2) heavy: QVQLQESGPGLVKPSETLSLTCAVSGHSISHDHAWSWVRQPPGEGLEWIGFISYSGITNYNPSLQGRVTISRDNSKNTLYLQMNSLRAEDTAVYYCARSLARTTAMDYWGEGTLVTVSSAKTTPPSVYPLAPGSAAQTNSMVTLGCLVKGYFPEPVTVTWNSGSLSSGVHTFPAVLQSDLYTLSSSVTVPSSTWPSETVTCNVAHPASSTKVDKKIVPRDCGCKPCICEPNEEESVFIFPPKPKDVLTITLTPKVTCVVVDISKDDPEVQFSWFVDDVEVHTAQTQPREEQFNSTFRSVSELPIMHQDWLNGKEFKCRVNSAAFPAPIEKTISKTKGRPKAPQVYTIPPPKEQMAKDKVSLTCMITDFFPEDITVEWQWNGQPAENYKNTQPIMDTDGSYFVYSKLNVQKSNWEAGNTFTCSVLHEGLHNHHTEKSLSHSPGK light: not shown | – | – | 0.08 fold | 1.47 fold | 7220 nM | 246 nM |
